Target: Guinea pig soluble FcRn (guinea pig)
Experiment: SPR

Row | Substance | Kd
1 | human IgG4 purified from myeloma (from UniProt P01861) | 6.8 µM
2 | human IgG2 purified from myeloma (from UniProt P01859) | 4.2 µM
3 | human IgG1 purified from myeloma (from UniProt P01857) | 5.2 µM
